Tests used:
VCIP135 (human) = biological target: T1, VCIP135 (human) (UniProt Q96JH7); test: Flag co-IP, 293 cells, MudPIT MS
T1 sequence (looked up): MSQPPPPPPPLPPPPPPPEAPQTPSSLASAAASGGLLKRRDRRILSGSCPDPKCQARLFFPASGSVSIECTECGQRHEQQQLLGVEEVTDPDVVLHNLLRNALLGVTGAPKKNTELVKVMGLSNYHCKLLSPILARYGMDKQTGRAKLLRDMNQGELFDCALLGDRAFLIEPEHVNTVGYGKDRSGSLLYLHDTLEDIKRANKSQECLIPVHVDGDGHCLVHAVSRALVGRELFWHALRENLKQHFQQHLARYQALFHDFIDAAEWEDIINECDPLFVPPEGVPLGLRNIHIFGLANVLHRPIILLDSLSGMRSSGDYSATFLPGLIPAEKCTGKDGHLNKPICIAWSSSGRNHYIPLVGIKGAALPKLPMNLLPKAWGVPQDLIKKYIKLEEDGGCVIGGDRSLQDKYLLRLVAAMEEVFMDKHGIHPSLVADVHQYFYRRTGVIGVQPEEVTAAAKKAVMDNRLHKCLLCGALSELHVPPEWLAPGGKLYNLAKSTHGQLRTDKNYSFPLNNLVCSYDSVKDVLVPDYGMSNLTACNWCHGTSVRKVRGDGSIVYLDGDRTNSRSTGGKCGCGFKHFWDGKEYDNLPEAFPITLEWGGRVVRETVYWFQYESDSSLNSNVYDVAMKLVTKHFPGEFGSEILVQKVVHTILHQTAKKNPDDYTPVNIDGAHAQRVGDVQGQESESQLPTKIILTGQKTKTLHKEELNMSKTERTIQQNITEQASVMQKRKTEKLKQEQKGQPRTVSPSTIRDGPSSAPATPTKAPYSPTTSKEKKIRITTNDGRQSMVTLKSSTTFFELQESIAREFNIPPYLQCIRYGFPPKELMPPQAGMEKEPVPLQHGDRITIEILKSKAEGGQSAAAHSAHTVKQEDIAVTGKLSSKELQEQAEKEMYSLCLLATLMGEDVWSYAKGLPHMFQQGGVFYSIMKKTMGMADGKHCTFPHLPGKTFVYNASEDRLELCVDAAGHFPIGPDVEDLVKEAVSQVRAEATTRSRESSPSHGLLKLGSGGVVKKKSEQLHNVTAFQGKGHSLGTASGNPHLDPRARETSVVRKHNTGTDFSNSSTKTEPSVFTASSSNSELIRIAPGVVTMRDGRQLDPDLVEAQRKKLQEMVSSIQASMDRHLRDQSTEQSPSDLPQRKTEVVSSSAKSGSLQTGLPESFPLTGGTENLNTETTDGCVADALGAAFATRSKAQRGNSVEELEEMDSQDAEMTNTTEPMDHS

[1] = biological target: Ubiquitin conjugation factor E4 B, UBE4B (Ufd2ortholog) (human) (UniProt O95155); test: Flag co-IP, MudPIT MS, MG132
Ubiquitin conjugation factor E4 B, UBE4B (Ufd2ortholog) (human), sequence (O95155 whole entry): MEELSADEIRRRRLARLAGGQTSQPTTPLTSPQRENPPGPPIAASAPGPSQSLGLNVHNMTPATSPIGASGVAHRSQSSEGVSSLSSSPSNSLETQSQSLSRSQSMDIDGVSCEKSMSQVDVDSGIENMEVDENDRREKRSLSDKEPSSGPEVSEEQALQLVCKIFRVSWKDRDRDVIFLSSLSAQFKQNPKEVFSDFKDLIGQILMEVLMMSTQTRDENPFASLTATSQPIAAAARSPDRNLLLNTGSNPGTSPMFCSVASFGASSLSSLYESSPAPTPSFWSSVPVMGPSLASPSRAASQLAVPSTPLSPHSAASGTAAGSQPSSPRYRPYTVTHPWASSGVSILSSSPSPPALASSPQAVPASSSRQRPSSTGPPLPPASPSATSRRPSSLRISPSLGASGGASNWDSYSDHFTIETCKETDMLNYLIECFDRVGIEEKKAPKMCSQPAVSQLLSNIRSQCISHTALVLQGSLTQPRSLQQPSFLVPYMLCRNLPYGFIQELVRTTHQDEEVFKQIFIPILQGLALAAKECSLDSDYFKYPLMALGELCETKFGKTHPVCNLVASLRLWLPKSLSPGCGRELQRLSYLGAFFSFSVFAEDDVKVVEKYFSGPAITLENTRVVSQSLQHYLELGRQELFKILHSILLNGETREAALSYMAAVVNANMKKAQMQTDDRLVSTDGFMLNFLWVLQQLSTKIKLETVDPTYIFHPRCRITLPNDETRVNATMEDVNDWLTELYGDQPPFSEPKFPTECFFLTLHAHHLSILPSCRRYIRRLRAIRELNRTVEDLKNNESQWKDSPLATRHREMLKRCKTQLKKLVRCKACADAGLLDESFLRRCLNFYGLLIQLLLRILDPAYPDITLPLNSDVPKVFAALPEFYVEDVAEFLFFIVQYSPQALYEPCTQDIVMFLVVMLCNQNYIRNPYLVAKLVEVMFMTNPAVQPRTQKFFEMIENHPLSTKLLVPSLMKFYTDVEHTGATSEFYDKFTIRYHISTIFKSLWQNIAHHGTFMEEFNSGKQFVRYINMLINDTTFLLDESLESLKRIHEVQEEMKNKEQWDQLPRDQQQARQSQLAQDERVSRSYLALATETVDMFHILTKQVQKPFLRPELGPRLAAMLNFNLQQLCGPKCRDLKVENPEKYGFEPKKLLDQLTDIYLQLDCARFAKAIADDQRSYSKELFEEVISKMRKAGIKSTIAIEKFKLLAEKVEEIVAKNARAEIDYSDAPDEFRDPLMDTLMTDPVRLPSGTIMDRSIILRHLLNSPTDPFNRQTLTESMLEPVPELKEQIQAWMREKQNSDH

Praja 2 (human) = Praja 2 (human) (UniProt O43164); test: Flag co-IP, MudPIT MS, MG132
Praja 2 (human), sequence (O43164 2-708 limits assumed): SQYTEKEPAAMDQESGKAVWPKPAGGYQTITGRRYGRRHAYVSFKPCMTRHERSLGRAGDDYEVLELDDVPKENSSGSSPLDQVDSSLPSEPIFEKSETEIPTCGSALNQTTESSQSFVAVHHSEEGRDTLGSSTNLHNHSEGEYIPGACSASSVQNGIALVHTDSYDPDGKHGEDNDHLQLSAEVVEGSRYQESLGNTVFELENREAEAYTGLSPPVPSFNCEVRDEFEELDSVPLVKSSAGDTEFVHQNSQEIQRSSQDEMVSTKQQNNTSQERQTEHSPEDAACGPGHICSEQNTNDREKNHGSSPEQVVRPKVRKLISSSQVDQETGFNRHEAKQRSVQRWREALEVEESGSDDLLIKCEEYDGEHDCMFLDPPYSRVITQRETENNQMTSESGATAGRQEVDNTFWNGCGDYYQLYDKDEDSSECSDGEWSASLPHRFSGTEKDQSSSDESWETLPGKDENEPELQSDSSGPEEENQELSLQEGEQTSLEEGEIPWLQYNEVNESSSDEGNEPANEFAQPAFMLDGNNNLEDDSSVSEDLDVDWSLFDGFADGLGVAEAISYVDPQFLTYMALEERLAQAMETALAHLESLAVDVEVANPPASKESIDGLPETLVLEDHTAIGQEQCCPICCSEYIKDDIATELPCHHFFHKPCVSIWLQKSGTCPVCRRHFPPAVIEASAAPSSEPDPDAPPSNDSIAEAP

endogenous NPL4 (human) = endogenous NPL4 (human) (UniProt Q8TAT6); test: Flag co-IP, 293 cells, MudPIT MS
endogenous NPL4 (human), sequence (Q8TAT6 other isoform, or with tags, fused parts or gaps limits assumed): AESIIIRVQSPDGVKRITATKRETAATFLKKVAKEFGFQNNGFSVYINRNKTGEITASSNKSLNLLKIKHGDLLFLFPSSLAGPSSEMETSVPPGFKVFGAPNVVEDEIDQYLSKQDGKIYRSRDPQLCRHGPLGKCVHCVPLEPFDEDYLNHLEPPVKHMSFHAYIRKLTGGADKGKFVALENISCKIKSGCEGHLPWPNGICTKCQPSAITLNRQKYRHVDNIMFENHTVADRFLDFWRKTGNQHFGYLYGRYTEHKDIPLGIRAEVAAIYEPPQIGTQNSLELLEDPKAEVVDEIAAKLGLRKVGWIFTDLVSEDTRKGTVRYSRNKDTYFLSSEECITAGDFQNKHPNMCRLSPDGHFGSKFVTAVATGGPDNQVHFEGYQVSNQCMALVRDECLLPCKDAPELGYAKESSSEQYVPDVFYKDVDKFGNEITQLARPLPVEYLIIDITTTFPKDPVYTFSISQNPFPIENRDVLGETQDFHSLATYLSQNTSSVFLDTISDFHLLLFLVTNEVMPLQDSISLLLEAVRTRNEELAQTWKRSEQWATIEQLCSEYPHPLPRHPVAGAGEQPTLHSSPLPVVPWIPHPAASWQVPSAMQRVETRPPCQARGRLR

[2] = biological target: CUL3-interacting protein I. KLHL12 (human) (UniProt Q53G59); test: Flag co-IP, MudPIT MS, MG132
Elongin B (human) = Elongin B (human) (UniProt Q15370); test: Flag co-IP, MudPIT MS, MG132
Elongin B (human), sequence (Q15370 other isoform, or with tags, fused parts or gaps limits assumed): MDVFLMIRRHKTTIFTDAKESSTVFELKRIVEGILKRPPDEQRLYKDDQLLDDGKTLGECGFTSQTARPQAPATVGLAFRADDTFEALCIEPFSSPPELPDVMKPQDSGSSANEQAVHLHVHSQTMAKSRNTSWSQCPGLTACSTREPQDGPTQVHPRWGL

[3] = biological target: BTB and Kelch domain-containing protein 2, KLHL13 (human) (UniProt Q9P2N7); test: Flag co-IP, MudPIT MS, MG132
[4] = biological target: Kelch domain-containing protein 2, KLDC2 (human) (UniProt Q9Y2U9); test: Flag co-IP, MudPIT MS, MG132
[5] = biological target: E3 ubiquitin-protein ligase Topors (human) (UniProt Q9NS56); test: Flag co-IP, MudPIT MS, MG132
[6] = biological target: Bromodomain and WD-repeat domain-containing protein 2, WDR 1 I (human) (UniProt Q9BZH6); test: Flag co-IP, MudPIT MS, MG132
Bromodomain and WD-repeat domain-containing protein 2, WDR 1 I (human), sequence (Q9BZH6 whole entry, the tested form may be a part): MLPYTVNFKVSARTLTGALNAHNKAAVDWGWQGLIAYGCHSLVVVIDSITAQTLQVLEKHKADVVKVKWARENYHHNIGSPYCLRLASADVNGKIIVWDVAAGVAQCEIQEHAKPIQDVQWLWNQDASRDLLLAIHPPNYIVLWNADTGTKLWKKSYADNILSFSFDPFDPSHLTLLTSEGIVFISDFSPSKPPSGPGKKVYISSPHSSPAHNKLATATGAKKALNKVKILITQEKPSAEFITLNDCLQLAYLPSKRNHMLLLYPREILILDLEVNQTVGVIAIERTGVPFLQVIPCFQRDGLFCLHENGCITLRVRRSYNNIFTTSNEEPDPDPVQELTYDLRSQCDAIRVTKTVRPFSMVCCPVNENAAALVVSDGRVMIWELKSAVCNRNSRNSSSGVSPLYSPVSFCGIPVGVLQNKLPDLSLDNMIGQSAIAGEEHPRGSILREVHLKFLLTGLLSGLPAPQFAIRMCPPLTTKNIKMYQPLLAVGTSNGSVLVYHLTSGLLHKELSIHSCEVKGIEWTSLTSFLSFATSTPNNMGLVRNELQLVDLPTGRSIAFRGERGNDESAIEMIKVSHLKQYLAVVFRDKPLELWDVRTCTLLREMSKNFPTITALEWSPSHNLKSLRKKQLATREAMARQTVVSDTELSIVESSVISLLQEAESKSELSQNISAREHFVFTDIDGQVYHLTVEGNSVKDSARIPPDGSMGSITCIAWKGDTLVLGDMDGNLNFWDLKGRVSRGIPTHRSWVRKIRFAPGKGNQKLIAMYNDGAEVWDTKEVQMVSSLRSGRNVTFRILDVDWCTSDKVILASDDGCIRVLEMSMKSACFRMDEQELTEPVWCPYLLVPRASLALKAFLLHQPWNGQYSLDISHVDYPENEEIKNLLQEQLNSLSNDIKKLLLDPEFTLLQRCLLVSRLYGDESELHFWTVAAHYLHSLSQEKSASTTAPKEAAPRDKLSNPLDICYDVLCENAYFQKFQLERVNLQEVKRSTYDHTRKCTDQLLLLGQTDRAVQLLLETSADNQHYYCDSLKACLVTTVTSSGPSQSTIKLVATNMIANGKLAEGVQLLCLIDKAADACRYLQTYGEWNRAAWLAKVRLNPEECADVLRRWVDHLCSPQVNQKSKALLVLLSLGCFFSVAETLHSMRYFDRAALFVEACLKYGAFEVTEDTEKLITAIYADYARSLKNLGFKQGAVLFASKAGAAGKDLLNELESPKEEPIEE

[7] = biological target: Kelch repeat and BTB domain-containing protein 7, KBTB7 (human) (UniProt Q8WVZ9); test: Flag co-IP, MudPIT MS, MG132
[8] = biological target: DDB1- and CUL4-associated factor I. VprBP (human) (UniProt Q9Y4B6); test: Flag co-IP, MudPIT MS, MG132
[9] = biological target: Kelch domain-containing protein 3, KLDC3 (human) (UniProt Q9BQ90); test: Flag co-IP, MudPIT MS, MG132
Kelch domain-containing protein 3, KLDC3 (human), sequence (Q9BQ90 whole entry, the tested form may be a part): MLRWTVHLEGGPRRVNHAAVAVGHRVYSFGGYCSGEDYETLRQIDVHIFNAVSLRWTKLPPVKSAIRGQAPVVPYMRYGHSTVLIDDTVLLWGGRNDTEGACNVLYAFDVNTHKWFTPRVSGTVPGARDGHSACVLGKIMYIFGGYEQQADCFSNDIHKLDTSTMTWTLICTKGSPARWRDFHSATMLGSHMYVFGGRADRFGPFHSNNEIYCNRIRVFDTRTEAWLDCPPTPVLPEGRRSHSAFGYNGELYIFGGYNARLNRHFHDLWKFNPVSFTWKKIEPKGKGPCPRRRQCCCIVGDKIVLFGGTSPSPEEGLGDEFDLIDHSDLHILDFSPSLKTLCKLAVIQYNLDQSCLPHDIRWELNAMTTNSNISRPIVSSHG

Cullin 3 (human) = Cullin 3 (human) (UniProt Q13618); test: Flag co-IP, MudPIT MS, MG132
Cullin 4B (human) = Cullin 4B (human) (UniProt Q13620); test: Flag co-IP, MudPIT MS, MG132
[10] = biological target: Galectin-3 binding protein. LG3BP (human) (UniProt Q08380); test: Flag co-IP, MudPIT MS, MG132
UBR1 (human) = UBR1 (human) (UniProt Q8IWV7); test: Flag co-IP, MudPIT MS, MG132
[11] = biological target: RING finger protein 126. RNE126 (human) (UniProt Q9BV68); test: Flag co-IP, MudPIT MS, MG132
RING finger protein 126. RNE126 (human), sequence (Q9BV68 2-311 limits assumed): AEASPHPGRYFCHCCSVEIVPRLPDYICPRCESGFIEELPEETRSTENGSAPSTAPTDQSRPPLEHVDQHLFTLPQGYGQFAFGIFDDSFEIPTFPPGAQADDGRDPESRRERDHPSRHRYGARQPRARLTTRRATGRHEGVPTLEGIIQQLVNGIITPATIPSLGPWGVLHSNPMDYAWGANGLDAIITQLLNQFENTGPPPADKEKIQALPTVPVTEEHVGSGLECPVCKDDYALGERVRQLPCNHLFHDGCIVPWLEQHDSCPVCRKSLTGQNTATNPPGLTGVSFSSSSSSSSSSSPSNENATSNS

Flag-SAKS1 (from UniProt Q04323 1-297)
sequence count (VCIP135 (human)): 2
sequence coverage (VCIP135 (human)): 2.9%
spectrum count (VCIP135 (human)): 2
abundance factor (AF) [1]: 1.5
sequence count [1]: 5
spectrum count [1]: 5
abundance factor (AF) (Praja 2 (human)): 1.1
sequence count (Praja 2 (human)): 2
spectrum count (Praja 2 (human)): 2

Flag-UBXD7 (from UniProt O94888 1-489)
sequence count (endogenous NPL4 (human)): 14
sequence coverage (endogenous NPL4 (human)): 24.5%
spectrum count (endogenous NPL4 (human)): 33
abundance factor (AF) [2]: 1.2
sequence count [2]: 3
spectrum count [2]: 3
abundance factor (AF) (Elongin B (human)): 9.7
sequence count (Elongin B (human)): 5
spectrum count (Elongin B (human)): 7
abundance factor (AF) [3]: 1.4
sequence count [3]: 4
spectrum count [3]: 4
abundance factor (AF) [4]: 3.2
sequence count [4]: 4
spectrum count [4]: 6
abundance factor (AF) [5]: 0.6
sequence count [5]: 3
spectrum count [5]: 3
abundance factor (AF) [6]: 1.3
sequence count [6]: 5
spectrum count [6]: 7
abundance factor (AF) [7]: 1
sequence count [7]: 3
spectrum count [7]: 3
abundance factor (AF) [8]: 0.6
sequence count [8]: 3
spectrum count [8]: 4
abundance factor (AF) [9]: 1.7
sequence count [9]: 3
spectrum count [9]: 3
abundance factor (AF) (Cullin 3 (human)): 8.4
sequence count (Cullin 3 (human)): 16
spectrum count (Cullin 3 (human)): 30
abundance factor (AF) (Cullin 4B (human)): 2.7
sequence count (Cullin 4B (human)): 10
spectrum count (Cullin 4B (human)): 11

Flag-UBXD8 (from UniProt Q96CS3 1-445)
sequence count (endogenous NPL4 (human)): 11
sequence coverage (endogenous NPL4 (human)): 20.6%
spectrum count (endogenous NPL4 (human)): 209
sequence count (VCIP135 (human)): 11
sequence coverage (VCIP135 (human)): 14.1%
spectrum count (VCIP135 (human)): 12
abundance factor (AF) [10]: 1.1
spectrum count [10]: 3
abundance factor (AF) (UBR1 (human)): 0.4
sequence count (UBR1 (human)): 3
spectrum count (UBR1 (human)): 3
abundance factor (AF) [11]: 1.4
sequence count [11]: 2
spectrum count [11]: 2

Reference: patent US20090192084A1
